This data set concerns MS2 coat protein. The data set can be described thus: apparent KD of MS2 coat protein; designed switch direction (-1 OFF switch, 1 ON switch): -1; higher = weaker reporter binding. In short, it runs like this: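 Designed RNA switches with common flanks were transcribed on Illumina chips by stalled E. coli RNA polymerase and titrated with SNAP-549-labelled MS2 coat protein, from 0.7 or 1.5 nM doubling to 3 µM, in Tris-HCl pH 7.5 buffer with KCl, MgCl2, BSA, DTT, tRNA and Tween-20. Steps lasted 0.8–1.5 h (lowest) to 10–20 min (highest). Titrations ran without input, with 200 uM small-molecule ligand, or with an oligonucleotide input. Normalised cluster fluorescence was curve-fitted, and apparent KD is the per-design median over clusters.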

Setting [1] is: input ligand: microRNA oligo, concentration not stated.
The mark [2] stands for this setting: Eterna round: R95, input ligand: FMN 200 uM.
Setting [3] is: Eterna round: R95, input ligand: microRNA oligo, concentration not stated.
The mark [4] stands for this setting: Eterna round: R95, input ligand: none.

For the sequence “UAAGUUUAGGUAGGAUAUACUUUCAAUUUCUCUUUCCUUACAUGAGGAUCACCCAUGUUUACAUUGUAGAAGGACCACUAUGUU [JR_ExcNG2_Sub054] (Eterna round: R96, puzzle: Exclusion NG 2)”, the “apparent KD of MS2 coat protein” value under setting [1] was 20.5 nM.
Take “AAUAAUGAUAAGGAUAUCACUAGCGAUAGCUAGUGAGAAGGUAUCACAUGAGGAUCACCCAUGUGUUCCAAUAA [Ex6/6-A4] (Eterna round: R97, puzzle: Exclusion 6)”: the “apparent KD of MS2 coat protein” value came out at 35.2 nM (input ligand: FMN 200 uM) and 17 nM (input ligand: none).
Consider “AUAAAUCAUGUAGGAUAUGCGUGGAGAAGCUAUGCAGAAGGACAUGAGGAUCACCCAUGUGCUUCCGUCUGAGUACAGACGGAA [Mat - Exclusion NG 1 - Mod of JL - D37] (Eterna round: R96, puzzle: Exclusion NG 1)”, for which the “apparent KD of MS2 coat protein” value is, setting by setting: (input ligand: FMN 200 uM) 129 nM; under setting [1], 99.4 nM; (input ligand: none) 86.5 nM.
“CCGAAAAUGCAGGAUAUCGUAUCGGAAACGAUACGAGAAGGGCAAACAUGAGGAUCACCCAUGUUCCUUAACGG [Mat - Exclusion 6 - Eli Mod - D76] (puzzle: Exclusion 6)”: the “apparent KD of MS2 coat protein” value under setting [2] stood at 21.3 nM, the “apparent KD of MS2 coat protein” value under setting [3] was determined as 19.4 nM and the “apparent KD of MS2 coat protein” value under setting [4] is 18.9 nM.
In the case of “UCAGUGCUGCGAGGAUAUACAUGAGGAUCACCCAUGUAAAUGUGUGAGGCUUUGCCUCACACAAUGUAGAAGGCGCAGUACUGU [Mat - Exclusion NG 2 - Mod of JL - D3] (Eterna round: R96, puzzle: Exclusion NG 2)”, the “apparent KD of MS2 coat protein” value reads like this: (input ligand: FMN 200 uM) 17.2 nM; under setting [1], 11.1 nM; (input ligand: none) 14.3 nM.
As for “ACAUGAGGAUCACCCAUGUGACAAGAAUGGCUGAUAAAGAGACAGGAUAUAGGUGCAUAUCUAACCUAGAAGGGUCAUGACUGG [Deportation 74 - Jieux - Exclusion NG 3] (Eterna round: R96, puzzle: Exclusion NG 3)”, the “apparent KD of MS2 coat protein” value came out at 38.5 nM (input ligand: FMN 200 uM), 28.3 nM under setting [1] and 38.1 nM (input ligand: none).
With “CUGGUCCGAGGAUAUAUUAAGUGAAACAUGAGGAUCACCCAUGUUAUUUGAUGGAUGAAAAUAGAAGGCGGACUAG [Mat - Exclusion 5 - JL mod - D58] (puzzle: Exclusion 5)”, the “apparent KD of MS2 coat protein” value reads like this: under setting [2], 22.9 nM; under setting [3], 41.1 nM; under setting [4], 45.2 nM.
Consider “GCAGCUAAUCGAGGAUAUCAGCACGUUUAGUGCUGAGAAGGCGACAUGAGGAUCACCCAUGUGAUCAAUUAAUAUUAAUGCUGC [ENG1/11-A2] (Eterna round: R96, puzzle: Exclusion NG 1)”, for which the “apparent KD of MS2 coat protein” value runs as follows: (input ligand: FMN 200 uM) 1270 nM; under setting [1], 344 nM; (input ligand: none) 659 nM.
For the sequence “GGAUAUAGGCGAGGAUAUACGCACCACUAACGAGUAGAAGGCGCACAUGAGGAUCACCCAUGUGAGUUCUCAAUAUGAUACACG [Prohibition 70 - Jieux - Exclusion NG 1] (Eterna round: R96, puzzle: Exclusion NG 1)”, the “apparent KD of MS2 coat protein” value by setting is: (input ligand: FMN 200 uM) 14.9 nM; under setting [1], 14.1 nM; (input ligand: none) 18.6 nM.
For “GCUGCGCGAGGAUAUGCGGUUCGCGCUGUGGCCCGUGGCGCACAUGAGGAUCACCCAUGUAGAAGGCGUGCGGG [Apr-15 SS2-57] (puzzle: Exclusion 2)”, under setting [3], the “apparent KD of MS2 coat protein” value was determined as 9.52 nM.
With “UUUUAACAUGAGGAUCACCCAUGUGAGGAUAUCGAAAUUUAUAUUUAUAUUUAUAAUUCGAGAAGGCACAUUUU [JMF 93] (puzzle: Exclusion 1)”, under setting [3], the “apparent KD of MS2 coat protein” value was determined as 181 nM.
As for “AGGUGUAGAGGAUAUCGAGUUCUUUACAUGAGGAUCACCCAUGUCCUGGGCACCCAGGACCGAGAAGGCUACACCA [Omei Ex5 D29] (Eterna round: R97, puzzle: Exclusion 5)”, the “apparent KD of MS2 coat protein” value by setting is: (input ligand: FMN 200 uM) 50.3 nM; (input ligand: none) 32.8 nM.
Take “GUCGUGCGGCUUUGCUGUACGAGUACAUGAGGAUCACCCAUGUAGGAUAUGGCUCGCUUUGCGUGCCAGAAGGGCGUGCGUUGG [Excl-NG3-LRO11] (Eterna round: R96, puzzle: Exclusion NG 3)”: the “apparent KD of MS2 coat protein” value is 43.2 nM (input ligand: FMN 200 uM), 25.6 nM under setting [1] and 33.6 nM (input ligand: none).
Regarding “GGGCCCGGUGUGAGGAUAUCGGGCCCGAAAGGGUUUGAGAAGGCACAUGAGGAUCACCCAUGUAAGCCGGGCCC [-41.1, -39 kcal, A 23%, 5b-0] (Eterna round: R97, puzzle: Brourd's mod of Exclusion 4)”, the “apparent KD of MS2 coat protein” value was found to be 17.1 nM (input ligand: FMN 200 uM) and 15.3 nM (input ligand: none).
With “GAUCGUUUAGAGGAUAUCGUGCUAAACAUUACAUGAGAAGGCUAGACAUGAGGAUCACCCAUGUAUACUCGUGA [Exclusion 6 - 8:a] (puzzle: Exclusion 6)”, the “apparent KD of MS2 coat protein” value under setting [2] was determined as 23.7 nM, the “apparent KD of MS2 coat protein” value under setting [3] stood at 14.7 nM and the “apparent KD of MS2 coat protein” value under setting [4] was 18.7 nM.
“GAGAAGGUAGGAUAUACGAAUAAAGAGGGUAGGAAUAAGACACAUGAGGAUCACCCAUGUAGAAGGACCAAGAG [Mat - Exclusion 2 - Mod of my Tesla design - D50] (puzzle: Exclusion 2)”: the “apparent KD of MS2 coat protein” value is, setting by setting: under setting [2], 37.1 nM; under setting [3], 20.3 nM; under setting [4], 21.4 nM.
For “UUGAAGUCGUCAGGAUAUAGUUUUAAUGUCAUGCGUAUGUUCUUACAUGAGGAUCACCCAUGUCGCUAGAAGGGACUAUAGAUU [JR_ExcNG2_Sub009] (Eterna round: R96, puzzle: Exclusion NG 2)”, the “apparent KD of MS2 coat protein” value was 53.3 nM (input ligand: FMN 200 uM), 36.4 nM under setting [1] and 51.6 nM (input ligand: none).
As for “GAAAACGCAGAGGAUAUUUCAGAUCAAAGCUGCAAAGAAGGCUGCACAUGAGGAUCACCCAUGUGGUCUUCAAG [Mat - Exclusion 6 - JL Mod - D9] (Eterna round: R97, puzzle: Exclusion 6)”, the “apparent KD of MS2 coat protein” value (input ligand: FMN 200 uM) turned out to be 152 nM and the “apparent KD of MS2 coat protein” value (input ligand: none) is 29 nM.
Consider “AAUUCACAAGCGAGAUCCCACAUGAGGAUCACCCAUGUGCUCGUCUUAUAAGGUACUGUGACGAUAGUCACGGUACC [Mat - Sensor, turn-off var - Eli Mod - D87] (Eterna round: R97, puzzle: Sensor, turn-off variant 1)”, for which the “apparent KD of MS2 coat protein” value reads like this: (input ligand: FMN 200 uM) 16.4 nM; (input ligand: none) 16.1 nM.
In the case of “ACUCCUGAUGUUAGGAUAUCAGGCGCGACAGCGGAUGAGAAGGAACAUGAGGAUCACCCAUGUGGGCUUAUCAA [Reedonso] (Eterna round: R97, puzzle: Brourd's mod of Exclusion 4)”, the “apparent KD of MS2 coat protein” value (input ligand: FMN 200 uM) came out at 325 nM and the “apparent KD of MS2 coat protein” value (input ligand: none) is 81.6 nM.
Turning to “GCCAGAGCAGGAUAUCUAAUAUAUCACAUGAGGAUCACCCAUGUCCAGCGAAAGCUGGAGGGAGAAGGGCUCUGGC [Fiskers Ex 5 - 19] (puzzle: Exclusion 5)”, the “apparent KD of MS2 coat protein” value reads like this: under setting [2], 53.6 nM; under setting [3], 98.4 nM; under setting [4], 106 nM.
As to “UUUUGGUAAGGAUAUGAAUCGAUCUCGGAAACGAGAUCGAUUCAGAAGGUACAUGAGGAUCACCCAUGUUGAUU [Mod of Brourd 7 - Jieux - Exclusion 4] (Eterna round: R97, puzzle: Exclusion 4)”, the “apparent KD of MS2 coat protein” value (input ligand: FMN 200 uM) is 119 nM and the “apparent KD of MS2 coat protein” value (input ligand: none) worked out at 26 nM.
As to “UAUUAGCAAGCAACUGGGUACAUGAGGAUCACCCAUGUGCUCGUCUUAUAAGGUACUGUGACGAAAGUCACGGUACC [mod--Eli] (Eterna round: R97, puzzle: Sensor, turn-off variant 1)”, the “apparent KD of MS2 coat protein” value runs as follows: (input ligand: FMN 200 uM) 17.4 nM; (input ligand: none) 16.6 nM.
Consider “AUUGUUUUAGGAUAUACAUGAGGAUCACCCAUGUGUGCGAUGCGGAUCGGGAAAGCCUGUAGAAGGAAGACAUG [Eternabot (L1) Solution 74] (Eterna round: R97, puzzle: Exclusion 3)”, for which the “apparent KD of MS2 coat protein” value runs as follows: (input ligand: FMN 200 uM) 33.4 nM; (input ligand: none) 30.8 nM.
The like results for “UUCUGCACGCUGCGGUCCUACAUGAGGAUCACCCAUGUGGUCUGGUGGCGUGGGUCACCGGACUUGGCUCGUCUUGC [salish99_S_TOV1_R5_053] (Eterna round: R97, puzzle: Sensor, turn-off variant 1)” were, in that order, 20.1 nM and 21.1 nM.
Take “AAGUAUAGAGGAUAUAGUGAGUACUACAUGAGGAUCACCCAUGUUCUUCAAAACGUAUUUCUAGAAGGCUGAUAAA [EX-5 Malc#21] (puzzle: Exclusion 5)”: the “apparent KD of MS2 coat protein” value is, setting by setting: under setting [2], 110 nM; under setting [3], 47.8 nM; under setting [4], 59.1 nM.
For “UACAUGAGGAUCACCCAUGUUUUGUCGUGUAUGGUAUUUAUCUAGGAUAUCAAUGUAAUUAUUUAUGAGAAGGAGAAUAUUAAU [JMF's solution 40] (Eterna round: R96, puzzle: Exclusion NG 3)”, the “apparent KD of MS2 coat protein” value was found to be 41.2 nM (input ligand: FMN 200 uM), 36.1 nM under setting [1] and 44.7 nM (input ligand: none).
The like results for “GGUGCGUAUGUGAGGAUAUGCUGGUCCUUGGCUCGGCAGAAGGCACAUGAGGAUCACCCAUGUGGUGUCGUGCC [salish99_Bmod_ex4_056] (Eterna round: R96, puzzle: Brourd's mod of Exclusion 4)” were, in that order, 46 nM, 14.9 nM and 19.8 nM.
For the sequence “UCGAGGUCAGGAUAUACAUGAGGAUCACCCAUGUGGAGAUAAGGUAGGAAAAGAGUAGGUAGAAGGGACGAGAG [JR_Exclu3_Sub048] (puzzle: Exclusion 3)”, the “apparent KD of MS2 coat protein” value under setting [2] was found to be 61.4 nM, the “apparent KD of MS2 coat protein” value under setting [3] came out at 40.6 nM and the “apparent KD of MS2 coat protein” value under setting [4] came out at 57.6 nM.
